Measured values as given in patent US20230265183A1 (MABWELL SHANGHAI BIOSCIENCE, published 2023).
Substitutions are numbered along the chain they refer to. Each block holds one binder with its values, some of them ahead of it.

How the values were obtained:
human Nectin-4 [1] = biological target: T1, human Nectin-4 (human, UniProt Q96NY8 32-510); assay: FACS on BT474 cells
T1 construct: whole, on cells; Cell-surface target of the FACS, endocytosis and proliferation assays (CHO-huNectin4 S8 cells, BT474 cells); the assay field says which cells; also called huNectin4; PVRL4
T1 sequence (looked up): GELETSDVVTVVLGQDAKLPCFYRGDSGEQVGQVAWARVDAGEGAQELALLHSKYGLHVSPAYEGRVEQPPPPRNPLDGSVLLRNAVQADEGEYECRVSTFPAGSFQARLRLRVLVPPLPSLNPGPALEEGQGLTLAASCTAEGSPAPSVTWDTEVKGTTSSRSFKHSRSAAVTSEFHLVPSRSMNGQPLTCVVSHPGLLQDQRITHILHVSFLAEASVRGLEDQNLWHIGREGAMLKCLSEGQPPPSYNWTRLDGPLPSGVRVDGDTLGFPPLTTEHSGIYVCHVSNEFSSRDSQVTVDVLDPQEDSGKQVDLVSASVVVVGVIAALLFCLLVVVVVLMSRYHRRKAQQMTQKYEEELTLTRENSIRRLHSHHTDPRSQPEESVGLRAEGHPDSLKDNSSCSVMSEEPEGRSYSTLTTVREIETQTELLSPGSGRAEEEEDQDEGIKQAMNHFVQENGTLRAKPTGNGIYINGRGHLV
Description: (§1) The solutions of different concentrations were added to 384-well plates, 10 µl per well.
(§2) BT474 cells (breast cancer cells) expressing Nectin-4 on the cell surface were collected by centrifugation at 100 g at room temperature for 5 minutes, and then the cells were washed with PBS containing 0.5% BSA once and were centrifuged at 100 g at room temperature for 5 minutes. […] After incubation at 4° C. for 1 hour, fluorescently labeled goat anti-human IgG secondary antibody was added. After continued incubation at 4° C. for 1 hour, mean fluorescence readings of the cell populations were analyzed by a flow cytometer.

human Nectin-4 [2] = biological target: T1, human Nectin-4; assay: cell-based or functional assay
human Nectin-4 [3] = biological target: T1, human Nectin-4; assay: cell-based or functional assay; remark: listed apart in the source
human Nectin-4 [4] = biological target: T1, human Nectin-4; assay: FACS on BT474 cells; remark: listed apart in the source
Description: as §1, §2

[5] = biological target: T2, murine Nectin4 (NP_082169) (murine, UniProt Q8R007 31-508); assay: FACS on HEK-muNectin4 cells
T2 construct: whole, on cells; also called muNectin4
T2 sequence (looked up): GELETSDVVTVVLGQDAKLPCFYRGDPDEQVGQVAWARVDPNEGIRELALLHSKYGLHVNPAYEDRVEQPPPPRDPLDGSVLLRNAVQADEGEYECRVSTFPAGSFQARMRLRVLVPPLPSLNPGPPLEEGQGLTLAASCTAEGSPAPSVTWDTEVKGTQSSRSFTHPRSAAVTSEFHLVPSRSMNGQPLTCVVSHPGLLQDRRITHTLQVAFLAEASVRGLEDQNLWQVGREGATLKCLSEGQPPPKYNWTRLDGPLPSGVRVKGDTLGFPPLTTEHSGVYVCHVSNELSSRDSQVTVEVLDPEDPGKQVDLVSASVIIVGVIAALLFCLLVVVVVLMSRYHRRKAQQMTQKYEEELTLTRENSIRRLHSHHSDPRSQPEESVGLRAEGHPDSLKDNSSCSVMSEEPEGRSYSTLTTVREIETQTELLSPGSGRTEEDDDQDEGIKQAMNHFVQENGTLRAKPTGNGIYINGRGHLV

Cyno Nectin4 = biological target: T3, Cyno Nectin4 (Cyno, UniProt Q96NY8 32-510 (human entry)); assay: FACS on HEK-cynoNectin4 cells
T3 construct: Expressed on HEK293 cells (HEK-cynoNectin4)
T3 chain: T1 sequence (looked up) with V39A, I230V, A437T

human Nectin-4 [6] = biological target: T1, human Nectin-4; assay: FACS on CHO-huNectin4 S8 cells
His-tagged human NECTIN4 = biological target: T4, His-tagged human NECTIN4 (human, UniProt Q96NY8 32-349); assay: SPR (BIAcore S200), antigen on CAP chip, antibody as analyte, 1:1 fit
T4 construct: Antigen of the BIAcore assay; also called antigen; recombinant NECTIN4 protein; not shown: His tag
T4 sequence: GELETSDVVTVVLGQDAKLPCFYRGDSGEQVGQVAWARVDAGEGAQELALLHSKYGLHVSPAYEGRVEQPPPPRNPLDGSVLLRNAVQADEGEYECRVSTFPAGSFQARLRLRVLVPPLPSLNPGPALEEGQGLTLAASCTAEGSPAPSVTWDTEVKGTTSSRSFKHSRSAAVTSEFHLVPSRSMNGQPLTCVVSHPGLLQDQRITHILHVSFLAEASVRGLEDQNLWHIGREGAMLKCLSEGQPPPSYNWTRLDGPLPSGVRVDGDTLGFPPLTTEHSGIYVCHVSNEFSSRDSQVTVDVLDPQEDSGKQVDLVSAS
Description: Interactions between the antibodies and the antigen were measured using a BIAcore instrument S200 from GE. Referring to the instructions provided in Biotin Capture Kit from GE Healthcare, the analytical channel and the control sample channel on CAP sensor chip were first coupled with antigen i.e. His-tagged human NECTIN4, then samples containing antibodies (diluted 3-fold from an initial concentration of 20 nM respectively and solutions of each antibody of 8 concentrations were obtained totally, and the concentration 0.741 nM was set to be repeated) were allowed to flow through both the analytical channel and the sample channel, and the photoreactions upon antibody-antigen binding were measured. Association constant Kon and dissociation constant Koff and affinity constant KD of each antibody were finally obtained by instrument software fitting (1:1 binding mode) analysis.

[7] = biological target: T5, human Nectin-4(C-6His), Novoprotein Cat# CJ19 (human, UniProt Q96NY8 32-349); assay: ELISA, plate coated with 1 µg/ml human Nectin-4(C-6His), HRP-labelled secondary antibody, absorbance at 450 nm
T5 construct: Bought protein; also called recombinant human Nectin4 protein; antigen Nectin-4
T5 sequence: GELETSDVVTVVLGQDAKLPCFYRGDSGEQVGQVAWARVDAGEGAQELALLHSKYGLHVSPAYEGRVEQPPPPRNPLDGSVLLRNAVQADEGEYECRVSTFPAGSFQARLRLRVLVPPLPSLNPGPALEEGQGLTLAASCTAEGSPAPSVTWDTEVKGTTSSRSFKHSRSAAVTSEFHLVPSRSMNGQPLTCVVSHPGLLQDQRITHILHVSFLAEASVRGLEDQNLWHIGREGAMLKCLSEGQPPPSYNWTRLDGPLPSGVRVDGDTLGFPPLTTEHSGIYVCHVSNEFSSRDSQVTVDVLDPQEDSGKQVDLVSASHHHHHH
Description: (§3) Plates were coated with 1 µg/ml of the antigens and incubated at 4° C. overnight; next, antibodies serially diluted were added into the plates. Finally, the HRP-labeled secondary antibody was added, and absorbance at 450 nm was detected.

[8] = biological target: T6, human Nectin-1(C-6His), Novoprotein Cat# C492 (human, UniProt Q15223 31-334, limits assumed); assay: ELISA, plate coated with 1 µg/ml human Nectin-1(C-6His), absorbance at 450 nm. The text names only a goat anti-rabbit HRP secondary antibody
T6 sequence: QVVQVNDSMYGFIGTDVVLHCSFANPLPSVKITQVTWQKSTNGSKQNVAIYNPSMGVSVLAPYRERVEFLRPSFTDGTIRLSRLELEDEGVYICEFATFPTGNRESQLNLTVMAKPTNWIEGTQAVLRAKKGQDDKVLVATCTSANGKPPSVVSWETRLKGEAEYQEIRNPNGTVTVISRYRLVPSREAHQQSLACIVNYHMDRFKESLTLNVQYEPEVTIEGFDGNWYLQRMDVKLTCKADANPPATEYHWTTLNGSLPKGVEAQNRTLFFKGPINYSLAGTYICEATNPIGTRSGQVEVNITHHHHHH
Description: as §3

[9] = biological target: T7, human Nectin-2(C-6His), Novoprotein Cat# C440 (human, UniProt Q92692 32-360, limits assumed); assay: ELISA, plate coated with 1 µg/ml human Nectin-2(C-6His), absorbance at 450 nm. The text names only a goat anti-rabbit HRP secondary antibody
T7 sequence: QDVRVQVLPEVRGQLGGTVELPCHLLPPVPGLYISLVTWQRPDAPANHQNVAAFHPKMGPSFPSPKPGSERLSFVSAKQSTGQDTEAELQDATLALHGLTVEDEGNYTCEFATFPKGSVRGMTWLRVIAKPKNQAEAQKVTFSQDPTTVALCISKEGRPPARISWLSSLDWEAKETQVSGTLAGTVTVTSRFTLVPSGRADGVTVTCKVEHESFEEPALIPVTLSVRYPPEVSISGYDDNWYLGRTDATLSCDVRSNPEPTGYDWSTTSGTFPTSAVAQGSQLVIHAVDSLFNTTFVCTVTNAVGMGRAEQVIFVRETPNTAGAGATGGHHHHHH
Description: as §3

EC50 (human Nectin-4 [1]): 75 µg/mL
Endocytosis efficiency (%) (human Nectin-4 [2]): 56%
EC50 (ng/ml), inhibition of proliferation of BT474 cells (human Nectin-4 [3]): 16.9 ng/mL
B1: murine antibody 30J3 (antibody, V domains shown)
VH: EVQLQQSGPDLVKPGASVKISCKASGYSFTDYYMHWVKQSRGKGLEWIGRVNPNNGNTLYNQKFRGKAILTVDKSSSTAYMELRSLTSDDSAVYYCAREDRYAFAYWGQGTLVTVSA
VL: DIVLTQSPASLAVSLGQRATISCRASQSVSTSSYTYMHWYQQKPGQPPKLLIKYASNLESGVPARFIGSGSGTDFTLNIHPVEEEDTATYYCQHTWEIPYTFGGGTKLEIK
notes: Murine monoclonal antibody from hybridoma; also called mIgG 30J3
Percentage of cell killing at the highest concentration (human Nectin-4 [3]): 52.8%

EC50 (human Nectin-4 [4]): 83.8 µg/mL
B3: murine antibody 20M12 (antibody, V domains shown)
VH: QVQLQQSGPELVKPGASVRISCKASGYTFTSYYIHWVKQRPGQGLEWIGWIYPGNANNKYNENFKGKATLTADKSSSTAYMQLSSLTSEDSAVYFCARSVYYFDYWGQGTTLTVSS
VL: SVVMTQTPKFLLVSAGDRVTITCKASQSVSNDVAWYQQKPGQSPKLLIYYASNRNTGVPDRFTGSGYGTDFTFNISTVQAEDLAVYFCQQDYSSPYTFGGGTKLEIK
notes: Murine monoclonal antibody from hybridoma; also called mIgG 20M12

The remaining lines, values behind:

B2: murine antibody 5M21 (antibody, V domains shown)
VH: B3 VH with S21T, S31T, A56V, N58T, N63K, S99G, V100L
VL: B3 VL with V2I, V19L, N55Y, N74T
notes: Murine monoclonal antibody from hybridoma; also called mIgG 5M21
EC50 (human Nectin-4 [1]): 25.4 µg/mL
Endocytosis efficiency (%) (human Nectin-4 [2]): 69%
EC50 (ng/ml), inhibition of proliferation of BT474 cells (human Nectin-4 [3]): 42.3 ng/mL
Percentage of cell killing at the highest concentration (human Nectin-4 [3]): 33.5%

B4: 42D20 hz63 (antibody, V domains shown)
VH: QVQLQESGPGLVKPSETLSLTCTVSGFSLIDYGVSWIRQPPGKGLEWIGVIWGGGKIYYNSVLKSRVTISKDNSKSQVSLKLSSVTAADTAVYYCAKQGGLLFYAMDYWGQGTLVTVSS
VL: DIVMTQSPDSLAVSLGERATINCKSSQSLLNTYSQKNYLAWYQQKPGQSPKLLIYFASTRESGVPDRFSGSGSETDFTLTISSLQAEDLAVYFCQQHYNTPFTFGAGTKLELKR
notes: Humanized
EC50 [5]: 4.7 µg/mL
EC50 (Cyno Nectin4): 2.45 to 4.06 µg/mL
EC50 (human Nectin-4 [6]): 0.946 µg/mL
Kd (His-tagged human NECTIN4): 1.8 nM
EC50 (read off the curve) [7]: ~0.1 µg/mL
binding result [8]: no binding (tested: about 2.5 µg/ml (last point))
binding result [9]: no binding (tested: 10 µg/ml)
